Laboratory results: the supplement of paper PMC10126150
± gives the standard deviation of the averaged measurements.

Test system: ATP
Test: switch fluorescence ratio, 500 uM ATP over buffer (Cy3 cluster intensity, sum of 5 cycles each) (fold (ratio)); higher = stronger signal-on switching upon ATP binding; sequences stand for … in TCGTCGGCAGCGTCAGATGTGTATAAGAGACAGTTTTTTTTTTTTTTTTTTTTTTTTT…TC
Settings: aptamer strand: ATP DNA aptamer (quencher-CACCTGGGGGAGTATTGCGGAGGAAGG + anchor), 100 nM annealed; ATP concentration: 500 uM
Procedure, shortened: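 Cy3-labelled switching-strand clusters on a modified Illumina MiSeq flow-cell were annealed to 100 nM quencher-labelled ATP aptamer, imaged in selection buffer, then imaged after 15 min with 500 uM ATP at 22 °C. Five buffer/ATP cycles ran, with NaOH stripping and re-annealing between them. The fluorescence ratio is summed target-cycle over summed buffer-cycle Cy3 intensity per cluster, averaged per switch-domain sequence. Clusters outside 100-1000 RFU were excluded.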
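Further: ATP exposure 15 min at 22 °C before imaging.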

Sequence	switch fluorescence ratio
ACCGTAAACG	0.999 ± 0.12
TGTCATAATG	0.97 ± 0.015
TTCAAGTTTT	1.02 ± 0.063
CTGTCTTGA	1 ± 0.038
CTGTTTATTT	1.36 ± 0.54
CTTTTTTTTG	0.993 ± 0.017
ACTTAAATTA	1.03 ± 0.036
AACTAGGGTG	1.12 ± 0.013
GGATGGGCTA	0.999 ± 0.025
AAGGTAGGGT	1.025 ± 0.0034
GTGGTAAGCG	0.995 ± 0.065
CGCGGACGGT	1.05 ± 0.052
GAGTTATGGT	1.02 ± 0.044
GGGTGAAAAG	1.04 ± 0.033
TTTTACGGGC	1.018 ± 0.0039
AATCTTTGGA	1 ± 0.013
TATTGTGGGT	0.98 ± 0.035
ATTAATATGT	0.999 ± 0.023
CATGCTTTTG	1.013 ± 0.0021
TTTGATGGTT	1.01 ± 0.011
ATATTGTTTG	1.01 ± 0.1
TCGAAAATAT	1.5 ± 1
GACGGTAGTA	1.02 ± 0.017
TTTATCTGAT	0.965 ± 0.025
GCCCAACTGT	1 ± 0.036

Sequence	switch fluorescence ratio
GGACTGAAGT	1.02 ± 0.038
TTAGCAGGGA	1 ± 0.019
AGCAACCCCG	1.22 ± 0.17
ACACGTGGTT	1.04 ± 0.076
AGGGAACTGT	0.97 ± 0.056
AATATTCGTT	0.997 ± 0.039
AGTTGTTGGG	0.998 ± 0.013
TTATTTTCGG	0.994 ± 0.019
AAATTAATTG	1.02 ± 0.036
ATCGTTCAAT	0.9983 ± 0.0046
GTTATTGGGA	0.99 ± 0.051
GGTTCAAGTT	0.9816 ± 0.0095
GTATGCGGAG	0.996 ± 0.02
AAAAGGGATT	0.98 ± 0.012
AGCGAAGATG	1 ± 0.033
GGGTTTTATC	0.999 ± 0.035
TTTTGAATAA	0.9685 ± 0.0049
GTTTAGGGGA	0.999 ± 0.015
ACGATCTCCA	1.035 ± 0.005
GTTGTAGCAC	1.07 ± 0.029
AAGCTACGGC	1.02 ± 0.019
TGAGATGGGG	0.99 ± 0.021
TTGCTGGGAT	1.02 ± 0.012
TTGTACATCC	1.03 ± 0.013
TAAGCCCACG	1.09 ± 0.023

Sequence	switch fluorescence ratio
TGGGTGGCGG	0.945 ± 0.052
ATAGGATCGC	0.99 ± 0.039
TGAGTTTGGC	0.9862 ± 0.0013
CCTTTTTTAT	1.03 ± 0.085
TGGCGGCCAC	1.04 ± 0.15
CGGGAATGGC	1.06 ± 0.079
TGGCTTTGCT	0.962 ± 0.015
AAAAAAAGCG	0.979 ± 0.058
TAATGACTGT	1.02 ± 0.045
AAACTAAGTT	1.041 ± 0.008
TGGGACCCGT	1.04 ± 0.038
ACCTGGTCGT	1.05 ± 0.048
TTTGATTTAG	0.989 ± 0.026
TGCCTGGGGA	1.2 ± 0.25
GATGGTTTCC	1.02 ± 0.0017
GGGGTTGTAG	0.993 ± 0.047
GGCACGGAGG	0.989 ± 0.019
GGGGAAAGCG	1 ± 0.026
TTCAGTGTGG	0.971 ± 0.022
ATGTTATTTG	0.963 ± 0.022
TGTGTACCG	1.01 ± 0.065
AACGGCAGTG	1.03 ± 0.022
TGGGGTTTAG	0.99 ± 0.024
GCTATTTAGG	1 ± 0.024
GGTTTAGTGA	0.998 ± 0.034

Sequence	switch fluorescence ratio
TATTGCTAGG	0.9582 ± 0.0063
GCTGGGTGTG	1.03 ± 0.011
ATCAATTGTC	1.07 ± 0.025
GGTCGCGGGG	1.03 ± 0.027
CGGGGGCGCT	1.02 ± 0.013
CGCCGTGTCA	1.02 ± 0.068
AACTGGCAAT	1.5 ± 0.072
GTCGGGAGCC	0.967 ± 0.018
CTCGGAATTT	1.04 ± 0.037
GTGACATTAA	0.998 ± 0.03
CTAGGAAGGT	1.01 ± 0.033
TTAATGAATT	0.994 ± 0.014
AAGGGTCCAC	0.9907 ± 0.0079
AAAAGCGGAT	1.025 ± 0.0063
AAATGTAAGG	0.99 ± 0.034
ATAGGGGACG	1.01 ± 0.049
TGCGCCAGGG	1.263 ± 0.0037
GTTAACTGAG	1.03 ± 0.041
CCCAATCGGT	1.05 ± 0.027
TCGGGGCGGC	1.02 ± 0.046
TGGTGTGGAG	1.062 ± 0.006
CTTAACCTTC	2.43 ± 0.31
CCTTAATTTT	1.01 ± 0.019
GGTTTTTTAG	0.996 ± 0.021
GAGTGTACGT	1.01 ± 0.052

Sequence	switch fluorescence ratio
TGTAAGCTGG	1.03 ± 0.073
GCAGAGTGGA	0.9976 ± 0.003
TGTTAGGAAT	1 ± 0.021
GTTGAGTATA	1.01 ± 0.033
CTATTTTGGG	0.993 ± 0.026
AAGGACTATT	1.03 ± 0.011
TACCTCACTA	1.42 ± 0.17
ATTGGGAAAG	1.02 ± 0.041
CAGGGGCTTA	1 ± 0.038
TTTTTGGGCC	0.994 ± 0.017
ACTTATGATA	1.02 ± 0.054
GCGTATTCTA	1 ± 0.033
TCGCCGTTCT	0.99 ± 0.033
TCTAGGAAAG	0.991 ± 0.034
CCGGATGGAG	1.02 ± 0.036
ATTTGGGGGT	0.997 ± 0.023
TAATAGGTTC	0.972 ± 0.024
TTTTGGGA	1.01 ± 0.064
AAATGTGGAG	0.984 ± 0.021
TGCTAGCCTG	0.9955 ± 0.004
GTGGGATGAG	1.01 ± 0.022
AGGTGTAAGG	1.01 ± 0.051
ACGGGGGACT	1.02 ± 0.049
ATCATACGGA	1.034 ± 0.0088
ATGGTGCTGA	1.01 ± 0.014

Sequence	switch fluorescence ratio
TGTGAATGGT	0.985 ± 0.015
TGAAATAATT	0.9791 ± 0.0017
TGATTTGTAT	0.968 ± 0.018
AATTTGATAA	0.981 ± 0.011
GCGAGGGTCT	1.01 ± 0.027
ATCGAGTTAG	0.978 ± 0.012
TTTTGTAATG	0.991 ± 0.035
TATGGTTACG	0.9997 ± 0.0022
GTTTGTATGG	1.01 ± 0.018
TGAGTACCGG	1.08 ± 0.1
CACAAGCGAT	1.42 ± 0.063
TCCGCTTGTA	1.39 ± 0.11
TCAGTTATCG	0.985 ± 0.014
GGATAGTGCT	0.993 ± 0.012
AAGCAGTTAC	3.41 ± 0.3
GCTTCTATTG	1.001 ± 0.00067
ATCTAATAGG	0.959 ± 0.018
AGCTTCGTGG	0.971 ± 0.019
AGGTTCACTA	1.01 ± 0.06
ATCTCAATTT	0.967 ± 0.027
CTGGGGGTTC	1.01 ± 0.018
AAATTCGACG	1.05 ± 0.046
GTGTAATAGT	0.996 ± 0.021
TATGTAATTT	0.9932 ± 0.0092
TGGGGCTTTA	1.06 ± 0.031

Sequence	switch fluorescence ratio
GACAATGGTT	1 ± 0.027
ACTGTTTTTT	1.02 ± 0.018
ATGAATTCTC	1.01 ± 0.078
TCGAAGGAAT	1.24 ± 0.037
TCGGGTTTAT	1 ± 0.037
GTGTTTCCTG	0.994 ± 0.028
GTAGAGAACT	1 ± 0.021
ATTGGACCAT	0.976 ± 0.036
GCGCGAAGGA	1.03 ± 0.053
CGAAGGTTAG	0.987 ± 0.024
GTTATTTAGG	0.9966 ± 0.0084
AAGAATATGT	0.9756 ± 0.008
TTGGGCCGCT	0.974 ± 0.1
AGTGATGAAG	0.996 ± 0.037
TATCGGCAGC	1.07 ± 0.043
TACGGCTGGT	1.008 ± 0.0031
TTTATAGTAA	0.98978 ± 0.00052
AACTCACGGG	1.63 ± 0.083
TTGAATAGTT	0.998 ± 0.017
TACGGTAGCT	1.12 ± 0.051
TGCAAGAGTT	1.01 ± 0.014
GGGGGGCGCT	0.992 ± 0.018
GGGGTGGTCG	0.986 ± 0.083
GGTCAAGCTC	1.02 ± 0.02
ATTTTCGGAT	0.975 ± 0.01

Sequence	switch fluorescence ratio
TTTGCCGGCG	0.97337 ± 0.00069
ACGTAGTGGC	1.04 ± 0.02
CGGACTTATT	0.9686 ± 0.0054
AAACCGACAT	1.27 ± 0.03
ATGGATTGGT	0.984 ± 0.012
AGGGTCAGGA	0.996 ± 0.021
GTGTCCCCTG	0.981 ± 0.04
GGCTTAGGGG	0.979 ± 0.022
TGGCCACTTA	1.073 ± 0.0058
GCCTGGACGA	1.04 ± 0.018
CAACGCCTCC	3.52 ± 0.082
TTAAGGACTC	1.1 ± 0.042
AAGGAAAGGC	0.961 ± 0.037
ATGCCTAGTG	0.994 ± 0.013
GAGCCCTCGG	0.999 ± 0.023
ACCTCGAAGA	1.03 ± 0.014
TTTAGATCTT	0.981 ± 0.012
TTGGCGGGCG	0.979 ± 0.034
CTTTAGTACG	0.9734 ± 0.0012
GTATCTGATG	1.004 ± 0.0027
TGGGTCGGGT	0.9817 ± 0.0088
GTGTGGGGGC	1.008 ± 0.0072
CTGGGCGTGC	0.997 ± 0.03
TGGGTTACGA	1.04 ± 0.035
AAGGGGCATT	1.01 ± 0.011
